The values below are quoted from earlier work in patent US8759613B1, “Method of producing a lunasin polypeptide in plants” (University of Louisville Research Foundation, Inc., priority 2009, dated 2014).

Bounds are passed on as bounds.

The conditions of the data set: oral administration; digestion.

For “lunasin: polypeptide of 43-44 amino acids from soybean with a C-terminal end of nine consecutive aspartic acid residues (MSKWQHQQDSCRKQLQGVNLTPCEKHIMEKIQGRGDDDDDDDDD; Glycine max)”, the orally-administered lunasin degraded is on record as no more than 95%.
